According to patent publication US20140271602, “NUCLEOTIDE-SPECIFIC RECOGNITION SEQUENCES FOR DESIGNER TAL EFFECTORS” (THE BROAD INSTITUTE INC., published 2014):

Key:
[1] = target: T1, TALE1-NN (CACNA1C site 1 activator) (Xanthomonas (engineered), UniProt P14727 SEQ:1-983); experiment: cell_activity; HEK 293FT, endogenous CACNA1C mRNA; conditions: tags: VP64, 2A-GFP
T1 chain: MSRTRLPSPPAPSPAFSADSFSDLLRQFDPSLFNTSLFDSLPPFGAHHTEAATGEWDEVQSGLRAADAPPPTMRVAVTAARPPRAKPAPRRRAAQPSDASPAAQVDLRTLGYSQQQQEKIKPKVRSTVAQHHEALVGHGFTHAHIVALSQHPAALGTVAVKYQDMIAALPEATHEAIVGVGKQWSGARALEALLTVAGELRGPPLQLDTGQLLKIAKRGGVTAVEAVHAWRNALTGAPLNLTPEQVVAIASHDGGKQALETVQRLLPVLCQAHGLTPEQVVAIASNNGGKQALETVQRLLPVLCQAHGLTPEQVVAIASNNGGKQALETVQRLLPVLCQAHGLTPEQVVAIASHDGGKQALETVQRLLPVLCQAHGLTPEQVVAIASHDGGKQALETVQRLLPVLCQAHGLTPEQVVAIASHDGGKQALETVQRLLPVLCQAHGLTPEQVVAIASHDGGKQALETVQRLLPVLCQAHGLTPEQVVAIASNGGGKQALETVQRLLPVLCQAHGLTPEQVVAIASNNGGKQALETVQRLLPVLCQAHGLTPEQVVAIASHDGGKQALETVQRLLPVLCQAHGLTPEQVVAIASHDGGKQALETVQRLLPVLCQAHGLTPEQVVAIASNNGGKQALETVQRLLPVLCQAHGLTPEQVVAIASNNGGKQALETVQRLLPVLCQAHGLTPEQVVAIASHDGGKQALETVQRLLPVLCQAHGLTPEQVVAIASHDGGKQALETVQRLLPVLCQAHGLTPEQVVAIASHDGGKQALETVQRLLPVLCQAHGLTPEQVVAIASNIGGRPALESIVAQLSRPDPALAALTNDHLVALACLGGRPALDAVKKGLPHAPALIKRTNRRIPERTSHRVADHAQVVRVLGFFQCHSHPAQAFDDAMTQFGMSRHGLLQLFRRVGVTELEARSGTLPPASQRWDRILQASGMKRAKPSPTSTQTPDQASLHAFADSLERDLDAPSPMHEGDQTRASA
Method: Changes in mRNA are measured using qRT-PCR as described previously. VP64, VP64 transcription activation domain. All results are collected from three independent experiments in HEK 293FT cells. Error bars indicate s.e.m.; n=3. FIG. 19(b) discloses SEQ ID NOS 63 and 62, respectively, in order of appearance.
Using qRT-PCR, the performance of NN, NK, NH, and HN for targeting endogenous genomic sequences was further compared. The ability of NN-, NK-, NH-, and HN-TALEs to activate CACNA1C transcription by targeting the two endogenous target sites was tested (FIG. 19b). […] Both TALE 1-NH and TALE2-NH were able to achieve similar levels of transcriptional activation as TALE1-NN and TALE2-NN (˜5 and ˜3 folds of activation for targets 1 and 2, respectively) and twice more than TALE-NK and TALE2-NK (FIG. 19b). […] On the other hand, based on all the results from specificity and endogenous activity tests, the RVD NH seems to be a more suitable substitute for NN than NK when higher targeting specificity is desired, as it also provides higher levels of biological activity. Further testing using additional endogenous genomic targets helps validate the broad utility of NH as a highly specific G-targeting RVD.
For the endogenous gene transcriptional level assay to test the biological activities of TALE activators and TALE repressors, HEK 293FT cells were seeded into 24-well plates. […]

[2] = target: T2, TALE1-NH repressor (Xanthomonas (engineered), UniProt P14727 SEQ:1-983); experiment: cell_activity; endogenous CACNA1C mRNA; conditions: tags: SID
T2 chain: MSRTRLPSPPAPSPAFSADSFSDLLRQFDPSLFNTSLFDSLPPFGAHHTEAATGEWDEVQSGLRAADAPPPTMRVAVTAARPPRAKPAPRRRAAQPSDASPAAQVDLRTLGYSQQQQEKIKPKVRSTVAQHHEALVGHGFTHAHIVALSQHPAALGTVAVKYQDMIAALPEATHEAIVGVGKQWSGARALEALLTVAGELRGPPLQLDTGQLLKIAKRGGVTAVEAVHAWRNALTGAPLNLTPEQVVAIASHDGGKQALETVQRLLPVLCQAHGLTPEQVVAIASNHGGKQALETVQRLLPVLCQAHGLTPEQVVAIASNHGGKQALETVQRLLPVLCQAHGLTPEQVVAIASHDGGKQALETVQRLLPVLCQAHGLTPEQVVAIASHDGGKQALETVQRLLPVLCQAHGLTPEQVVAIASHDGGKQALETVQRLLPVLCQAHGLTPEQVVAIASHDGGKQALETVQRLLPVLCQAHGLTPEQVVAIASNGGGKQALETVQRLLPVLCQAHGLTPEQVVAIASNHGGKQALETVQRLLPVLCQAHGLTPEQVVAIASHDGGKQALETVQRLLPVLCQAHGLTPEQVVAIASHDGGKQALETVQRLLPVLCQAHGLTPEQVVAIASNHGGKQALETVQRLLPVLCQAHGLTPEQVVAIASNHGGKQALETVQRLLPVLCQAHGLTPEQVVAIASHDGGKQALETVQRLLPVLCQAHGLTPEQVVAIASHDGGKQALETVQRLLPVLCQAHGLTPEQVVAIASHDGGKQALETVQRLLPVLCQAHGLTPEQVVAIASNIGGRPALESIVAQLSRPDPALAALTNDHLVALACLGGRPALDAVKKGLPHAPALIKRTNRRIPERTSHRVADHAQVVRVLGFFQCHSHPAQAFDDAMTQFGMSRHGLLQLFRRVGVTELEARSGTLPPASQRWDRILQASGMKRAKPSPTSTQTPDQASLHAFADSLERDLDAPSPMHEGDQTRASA

B1: CACNA1C site 1 (dsDNA)
DNA 1: TCGGCCCCTGCCGGCCCA
DNA 2: TGGGCCGGCAGGGGCCGA
activity [1]: ~5 fold activation | activity [2]: ~4 fold repression
